# Measurements taken from the DeepSol protein solubility set.
# Test: soluble on expression in E. coli; label from the status in PepcDB or PDB records
row,Sequence,soluble on expression in E. coli
1,MNYLLIDTSNQPLSVAIMKDNEVIAEKTTDIKKNHSVQLMPEIAEILTESKINKTEITDIVVAEGPGSYTGLRIGVTVAKTLAYALNTNLYGVSSLKALASTVKDSTKLLVPIFDARREAVYAGVYQYQDNELITIIDDTYIPIFELIEKLHQLNQPYVFVGFHIEKIKHLLDSDIVEQLPQASSMKQLIQKPENIHSFTPKYHKLSEAERNWLNQQENNLEHHHHHH,not soluble
2,MNYNIRGENIEVTPALKDHVERKIGKLERYFDHSVDADVNVNLKFYNDKESKVEVTIPMTDLALRSEVHNEDMYNAIDLATNKLERQIRKHKTKVNRKFREQGSPKYLLANGLGSDTDIAVQDDIEEEESLDIVRQKRFNLKPMDSEEAILQMNMLGHNFFVFTNAETNLTNVVYRRNDGKYGLIEPTELEHHHHHH,soluble
3,MPANKLVALTFDDGPDNVLTARVLDKLDKYNVKATFMVVGQRVNDSTAAIIRRMVNSGHEIGNHSWSYSGMANMSPDQIRKSIADTNAVIQKYAGTTPKFFRPPNLETSPTLFNNVDLVFVGGLTANDWIPSTTAEQRAAAVINGVRDGTIILLHDVQPEPHPTPEALDIIIPTLKSRGYEFVTLTELFTLKGVPIDPSVKRMYNSVPLEHHHHHH,soluble
4,MPAVQETIRQVREIDVDQYKYGFETKIKTDKAPKGLNEDIIRFISAKKCEPEWMLKWRLQAFRRWLTMQEPDWARIEYPKIDFQELHYYAAPKNHTGPKSLEEVDPELLATYEKLGIPLKEQEILAGVRKQSDPSTFDESVYASGQVAVDAVFDSVSVVTTFKKELARAGVIFCSISEAIIEHPALINQYLGTVVPVGDNYYAALNAAVFTDGSFVYIPKGVRCPMELSTYFRINERNTGQFERTLIIADEDSYVSYLEGCTAPQRDENQLHAAVVELVALKNAEIKYSTVQNWYPGDKEGNGGIYNFVTKRGDCRGDNSKISWTQIETGSAITWKYPSCLLRGDNSRGEFYSIAVANGHQQIDSGTKMIHLGKNTSSRIVSKGISAGFSNNTYRGQVTAHRKAHNARNFTQCDSLLIGNDCGAHTVPYIEAKNATAQFEHEATTSKISDDQLFYVMQRGIPEEEAIALIVNGFVKEVIQKLPMEFAVEAQKLIGISLEGSVG,not soluble
5,MPDEKDKHEGTWLQWPHEYTYGEEYKKEVEPIWVKMASALTEGEKVHIVAYDQEEKERINNLLTDEGLNMEKIDFFIAPTDDVWARDSGPIFVYDSNKNLKILDPAFNGWGKKTPYKNDAQIRKNVSKQSGIERVDWGKFVLEGGAIELDSNGTALLTRSAVTNKNRNPDLSEKEIEKYISDLGVSNFIWLDGVPNLDITDFHIDGFAKFHNKSTIVTMKEDDLAEWGLSNKDMDTLLDAKNASGQKYKYEYLPLSKEKVALENGKTLDYKGSYINYYIGNTVVLVPNYNDPNDKIANDTIQKLYPDRKVVGIDVRELYKNGGMIHCVTQQQPIALKMAGDPLEHHHHHH,soluble
6,MPESIFKQISLDILKLHRDSVYSLLATSGCNCQVHEAAYVNIDGKYYIALSCEPEVGEVKTGILLIEDESRNLRLSWVGSARELDCKDNAYKRALSALSRKLGRCKDRLHTAVQPFLLELVPEKGRFSVGDEEVWISRNDLVRALYPVGYSMRQAVFQI,not soluble
7,MPESVAVTGGNGRIGKHVLDHLTTAGYRTVNLSRGKCDEAHSDAYIKTDLLDAGELYGALAKSDADTVVHLGMIPTPDQTPGYRTYESNVMSSYHVLEAAGELGIDTVALASSFSAIGGGFEPDLITVDYLPIDEDHRLTPSNPYAMGKQTLEIAADGFARRSTDAPETITSLRFPWVVDDDLAQETFVEADRTLAGLRNSDHFHTQRNTLCGYVHVTDAVALVEAAIEASFAGHERLWVSAPDTSAETPSAELAAELYSDADYRGQTGDDGSPYTALIDTTKAERLLGWEPTWNWRQLA,not soluble
8,MPETTYKYEDNEVKKKKTIFNENGYIIEELHYDKNRKEPYSYKKRYNDKGLLVESHEHTYTYEYDKNGNLVQIKRPKNSAYGGLERTTYNKAGKIIRTQTFTQNQYDKAGVKITDDSNYLKDKNGELYQSLTDYSYIYNKDGKLQEIRDNVFSSGTIKYSYEYEDGLYVKTAELVTQKFVTYYDKAGNEVKYKWITYSLGPDKPRTQLHLVFKENKRDKYGNLIYQVANRIEELDPEKKGTDVGIYEKKIIEYEYYELEHHHHHH,not soluble
9,MPFENAPHLVFWEVTKACPLTCKHCRANAIDKPLPGELNTEESRKLLEDIARFGKVVIVFTGGDPLSRSDIFELMEYAKSLGLVVSIAPSPSHRLDDETMKIISNYARYMSISLDGATSQTHDWLRGLGSYKYALRGIELGLKYGIQVQVNTLVWKKSYSELPFVVKLLKEMGVKIWEVFFLIPVGRGTTELDIPRDKYKDVIDFLVEATRYDLIVRTVEAPFFRRAKLEYTPATTNDNELVSTLRELLGEPVKEADKSILPTRDGAGVIFIGYNGDVYPSGFLPLYLGNVKKESLVDIYRKSEVLKKIKDSRFEGKCGICKYNNICGGSRARAFAVYNNPFAEDPMCPY,not soluble
10,MPFPFGKSHKSPADIVKNLKESMAVLEKQDISDKKAEKATEEVSKNLVAMKEILYGTNEKEPQTEAVAQLAQELYNSGLLSTLVADLQLIDFEGKKDVAQIFNNILRRQIGTRTPTVEYICTQQNILFMLLKGYESPEIALNCGIMLRECIRHEPLAKIILWSEQFYDFFRYVEMSTFDIASDAFATFKDLLTRHKLLSAEFLEQHYDRFFSEYEKLLHSENYVTKRQSLKLLGELLLDRHNFTIMTKYISKPENLKLMMNLLRDKSRNIQFEAFHVFKVFVANPNKTQPILDILLKNQAKLIEFLSKFQNDRTEDEQFNDEKTYLVKQIRDLKRPAQQEA,soluble
11,MPFPSRSLRATLCSAPVRMPDAAQKNAATPPPPLALSKPSPSPWAALLTPSSLSFPCSPSLPTYRRTRTAMHGSPPARGLQRRIKVPLMASAPSSIAFDIAAPTAAAWIARWMPVASPRRCSPLLRLCGDYPRCAVAAALSCQRLWIRSTSPLACSTAAGQTRSTPKMTKRPRRGIRRPSRAAGRLGSDTEEAENAALCQRHPEEHAGIFQSQHIKPFPVRAAIDIGTGGVVSLCVARVDATVGAIQKLMYQTQLPLHLEALPTSMSSPSSPLSASSSSFTLSERTMEDITNKVHILQGAMRRNAFEGLSERAAVLSWPLCLARNAGQLAERLTKEFKVDVRVLGADFDVEWPPSVARFLAGEGASTPETADDSRSTVDKGTRDSVTRKGAENTLKSLLCAARAPTTSGLARHKRKVTAPPSSGSASSRGAMDARTQLDTLAFLAHAAVSQCVAPQRLLVLHEDPQRGLRLLGLGTSAADDIADLLDDATTPEERQSLYAIAHGPGPSLLEAGERTPSSGKQVFVAAHAQSRQQASLLPTLSSMRDCQGSADDGTSSDAAPAAASLMRLVEHPLPVDVASAHRYCITQIQRRPLESYGLHASSPNPLLADEFAALRGLLVGMIQPTLPAWVRRKAQLGGVLCGTSHNGGLLNLAARVSQQTHVSLEHLEVHAQYHFCGLTDVLLAESFPNPFLVLPSVALTAAVLRSLESPRITYLPEVSVAAALLVQPSLWLHARATEVRARLARDPFYASTTAAQRGRMFGRPHRKDNPTAAPDATWVKEGRWNPISFSESMRGT,not soluble
12,MPFRPQVIIGELMKTFGTNTNALPMSREETKTVEKFTRILKDAETDDLLIQSDDEEEVFGGIVDEEDWKPDDDDPSACVVPDKVNFSSGAAIDVAMVHSAVEFMTDVRTKKLRSFASMQRRYRFIKTQHDMQKLRVFAKNNEIQCSRVSQFSTLSGLLRTKVFEAIDDRISIDKFTLRRLAVQLNDEHVHIEGFQASDGWLKKWKKTNGLVSRHVTTFITRANYVNKELTEQAAKKFVEEVKAELATLDPDVVYNCDQSGFTKEQYCKRTLAPKGVKRVERLVQSKDALTHSYTILPMLSASGKLAPKLYVVLQEKGGKFPKKGHFSPDNLIIRANTSHIMNKQLMVDWVESAVCDPSMPTEVVLLLDAWPAWKNEGDVQAAALSGNTVHVRSIPPGATSFIQPCDLYFFCPLKNFVKKVNAYIIYSGITFKTSERDNLLRVISAVYRVFRAPIFQSCWKYGWIQGGYIDDQHVKVETPSKFCFKVSGYCSQKKTRDTMCQDTAFLLCPYCKKVLCFNHWVGCGFPAHKCKC,not soluble
13,MPFTPSEIKNKEFTRVKNGLEPTEVANYLEQLSNEIERLKEDKKQLEKVIEDRDSNIKSYKDVHQSVSDALIQAQKVGEETKQAATKEAEAVLSKAQVQADSIVNDAIEKARRLAFQTEDMKRQSKVFRSRFRMLVEAQLDLLKSEDWDYLLNYDLDAEQVTLEDIHHLHDNDLTPEERAMKQKQNQEISANQPSTSSSESVSQSNANNESSQSTSNN,soluble
14,MPFVRPLVTVVRAGRHSYSAGLQLQQRLARSNQILNPPAEFRNYLVLQEHDPVYTVGLRTKDYTAQDEDRLRRLGADFHRTDRGGLITFHGPGQLVAYPILHLGQFVPSIRWYVATLERMVVEACHQMGISSAKATKDTGIWVGDNKICAIGIHGSRYVTTHGIGLNCCTDLQWFEHIVPCGIEGKGVTSLSKELDRHFPVEEASGALLNSFAKVFECRLQEHAKKPASSAEIG,not soluble
15,MPGNSGNDRSVVVGRVSGAFGVRGWVKAVSFTDPPVNLVGYRPWTLRRGDAERRADVLEGREHGNAVIVRLQGVDTREQAEALKGFEVTVRRSQLPPPAPGEYYRVDLVGLKVVNLGETVLGEVVDVMETGANDVLVVQGDRERLLPFVQGVFVKSVNLEESRIVVDWDPGFLEHHHHHH,not soluble
16,MPHPNRTFKIVIAPDSFKSTATTSQAAAFIAEGIQAAVQSNECEGINVEITTVPMADGGEGTSSCFEGIDITLPTTDANGRLTEATYRFDPQSETAYIDVAAASGLPAVEDELRPLTADTYGTGVLIADAQTRGARR,not soluble
